Experimental data reported in article PMC3229523, “Identification of Lactoferricin B Intracellular Targets Using an Escherichia coli Proteome Chip” (PLoS ONE, 2011).
Ends that are not written are not given here. * marks the point of attachment. Biotin = O=C1N[C@H]2[C@H](CS[C@H]2CCCCC(=O)*)N1

Assays:
Assay in all cases: peptide or protein array; E. coli proteome chip: purified His-tagged proteins printed in duplicate on Fullmoon slides, blocked with 1% BSA; 10 nM N-terminal biotinylated LfcinB with 1% BSA, room temperature, 1 h; detected with DyLight 649-labeled streptavidin, ratio to DyLight 549-labeled anti-His antibody; ProCAT normalisation, local cut-off; triplicate chips
Conditions in all cases: both partners purified
HemC = target: T1, HemC (E. coli K-12, UniProt P06983 1-313)
T1 construct: HemC, E. coli K-12
T1 sequence (looked up): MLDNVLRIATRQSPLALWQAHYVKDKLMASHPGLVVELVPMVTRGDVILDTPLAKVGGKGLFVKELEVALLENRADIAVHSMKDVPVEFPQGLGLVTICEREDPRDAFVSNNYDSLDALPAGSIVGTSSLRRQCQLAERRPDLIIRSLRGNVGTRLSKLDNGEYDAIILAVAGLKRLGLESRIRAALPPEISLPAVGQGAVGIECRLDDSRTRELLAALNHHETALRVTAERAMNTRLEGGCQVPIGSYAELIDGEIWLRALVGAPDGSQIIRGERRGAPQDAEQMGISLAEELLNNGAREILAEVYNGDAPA

YihI = target: T2, YihI (E. coli K-12, UniProt P0A8H6 1-169)
T2 construct: YihI, E. coli K-12
T2 sequence (looked up): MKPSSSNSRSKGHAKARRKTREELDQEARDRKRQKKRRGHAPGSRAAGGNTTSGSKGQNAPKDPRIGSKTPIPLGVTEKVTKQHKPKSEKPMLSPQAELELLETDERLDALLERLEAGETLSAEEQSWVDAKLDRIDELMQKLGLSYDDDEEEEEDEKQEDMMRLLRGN

YhgA = target: T3, YhgA (E. coli K-12, UniProt P31667 1-292)
T3 construct: YhgA, E. coli K-12
T3 sequence (looked up): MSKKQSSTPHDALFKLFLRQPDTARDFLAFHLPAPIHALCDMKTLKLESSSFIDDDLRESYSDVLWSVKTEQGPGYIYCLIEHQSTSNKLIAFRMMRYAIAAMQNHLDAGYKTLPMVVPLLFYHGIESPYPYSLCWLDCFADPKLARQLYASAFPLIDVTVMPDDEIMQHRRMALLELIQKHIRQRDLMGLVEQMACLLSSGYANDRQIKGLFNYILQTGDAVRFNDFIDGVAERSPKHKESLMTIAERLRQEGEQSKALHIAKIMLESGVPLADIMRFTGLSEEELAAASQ

RhaD = target: T4, RhaD (E. coli K-12, UniProt P32169 1-274)
T4 construct: RhaD, E. coli K-12
T4 sequence (looked up): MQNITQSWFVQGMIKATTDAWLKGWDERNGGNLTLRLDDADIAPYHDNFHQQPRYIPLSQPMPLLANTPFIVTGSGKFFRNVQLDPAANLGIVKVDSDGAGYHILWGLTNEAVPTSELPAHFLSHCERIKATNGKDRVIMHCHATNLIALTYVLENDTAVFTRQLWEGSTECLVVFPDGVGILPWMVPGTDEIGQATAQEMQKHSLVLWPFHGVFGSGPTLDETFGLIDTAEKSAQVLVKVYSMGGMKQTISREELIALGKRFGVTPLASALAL

InfC = target: T5, InfC (E. coli K-12, UniProt P0A707 1-180)
T5 construct: InfC, E. coli K-12
T5 sequence (looked up): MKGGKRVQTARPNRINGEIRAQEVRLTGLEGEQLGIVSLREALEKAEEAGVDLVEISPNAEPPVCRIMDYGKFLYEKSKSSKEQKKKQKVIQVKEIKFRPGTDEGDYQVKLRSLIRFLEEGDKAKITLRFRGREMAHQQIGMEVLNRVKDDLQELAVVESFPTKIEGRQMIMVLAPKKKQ

GldA = target: T6, GldA (E. coli K-12, UniProt P0A9S5 1-367)
T6 construct: GldA, E. coli K-12
T6 sequence (looked up): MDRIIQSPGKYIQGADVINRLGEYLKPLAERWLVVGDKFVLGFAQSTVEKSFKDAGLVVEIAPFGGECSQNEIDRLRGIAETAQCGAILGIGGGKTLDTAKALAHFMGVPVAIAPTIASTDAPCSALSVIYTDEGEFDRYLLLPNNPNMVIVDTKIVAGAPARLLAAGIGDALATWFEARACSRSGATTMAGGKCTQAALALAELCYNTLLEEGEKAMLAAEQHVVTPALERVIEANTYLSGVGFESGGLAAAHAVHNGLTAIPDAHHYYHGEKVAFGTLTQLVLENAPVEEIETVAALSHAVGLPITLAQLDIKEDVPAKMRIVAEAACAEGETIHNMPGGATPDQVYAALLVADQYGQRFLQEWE

Measured: binding result

B1: N-terminal biotinylated Lactoferricin B (peptide, UniProt P24627 36-60, looked up)
peptide: Biotin-FKCRRWQWRMKKLGAPSITCVRRAF
modifications: ends and bridges not checked
notes: lactoferricin B (LfcinB), cationic antimicrobial peptide of 25 amino acids; also called biotinylated LfcinB; biotin-labeled LfcinB; source: bought: Kelowna Inc
binds: HemC | YihI | YhgA | RhaD | InfC | GldA
